# From publication PMC10397247
# T1: 4H56-bA
# T1 chain: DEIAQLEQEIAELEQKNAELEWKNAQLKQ
# T2: 4H3364-bA
# T2 chain: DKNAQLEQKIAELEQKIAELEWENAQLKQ
# T3: 4H949-bA
# T3 chain: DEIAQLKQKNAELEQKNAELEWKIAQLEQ
# T4: 4H796-bA
# T4 chain: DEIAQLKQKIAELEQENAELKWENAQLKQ
# T5: 4H3297-bA
# T5 chain: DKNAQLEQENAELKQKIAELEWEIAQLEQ
# T6: 4H349-bA
# T6 chain: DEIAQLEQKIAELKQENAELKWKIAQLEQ
# T7: 4H3041-bA
# T7 chain: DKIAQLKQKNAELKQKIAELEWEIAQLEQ
# T8: 4H932-bA
# T8 chain: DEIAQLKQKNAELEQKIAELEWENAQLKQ
# T9: 4H3381-bA
# T9 chain: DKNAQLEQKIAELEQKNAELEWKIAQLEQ
# T10: 4H730-bA
# T10 chain: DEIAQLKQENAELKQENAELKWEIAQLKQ
# T11: 4H881-AA
# T11 chain: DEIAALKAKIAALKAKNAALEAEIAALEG
# T12: 4H993-AA
# T12 chain: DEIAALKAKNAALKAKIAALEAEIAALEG
# T13: 4H3112-AA
# T13 chain: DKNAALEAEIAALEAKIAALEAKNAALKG
# T14: 4H2642-AA
# T14 chain: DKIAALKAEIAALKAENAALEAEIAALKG
# T15: 4H717-AA
# T15 chain: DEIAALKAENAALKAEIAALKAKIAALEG
# T16: 4H2944-AA
# T16 chain: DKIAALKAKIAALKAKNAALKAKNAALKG
# T17: 4H48-AA
# T17 chain: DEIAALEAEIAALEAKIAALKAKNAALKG
# T18: 4H342-AA
# T18 chain: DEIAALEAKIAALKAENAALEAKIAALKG
# T19: 4H2949-AA
# T19 chain: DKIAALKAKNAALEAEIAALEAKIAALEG
# T20: 4H2617-AA
# T20 chain: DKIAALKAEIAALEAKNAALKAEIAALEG
# T21: 4H335-AA
# T21 chain: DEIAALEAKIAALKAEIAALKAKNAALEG
# T22: 4H3343-AA
# T22 chain: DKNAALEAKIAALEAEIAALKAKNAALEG
# T23: 4H605-AA
# T23 chain: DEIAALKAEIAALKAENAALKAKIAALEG
# T24: 4H3627-AA
# T24 chain: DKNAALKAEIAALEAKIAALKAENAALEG
# T25: 4H2190-AA
# T25 chain: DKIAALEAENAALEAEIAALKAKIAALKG
# T26: 4H454-AA
# T26 chain: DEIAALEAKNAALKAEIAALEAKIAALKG
# T27: 4H794-AA
# T27 chain: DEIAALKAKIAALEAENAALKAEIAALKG
# T28: 4H678-AA
# T28 chain: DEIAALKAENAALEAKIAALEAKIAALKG
# T29: 4H906-AA
# T29 chain: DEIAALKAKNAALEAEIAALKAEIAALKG
# T30: 4H429-AA
# T30 chain: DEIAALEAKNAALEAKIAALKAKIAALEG
# T31: 4H3427-AA
# T31 chain: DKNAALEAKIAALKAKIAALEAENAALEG
# T32: 4H2393-AA
# T32 chain: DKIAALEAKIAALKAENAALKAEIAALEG
# T33: 4H3606-AA
# T33 chain: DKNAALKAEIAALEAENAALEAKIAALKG
# T34: 4H780-AA
# T34 chain: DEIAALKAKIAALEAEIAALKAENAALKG
# T35: 4H3921-AA
# T35 chain: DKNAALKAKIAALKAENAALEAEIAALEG
# T36: 4H2505-AA
# T36 chain: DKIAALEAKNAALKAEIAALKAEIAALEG
# T37: 4H2837-AA
# T37 chain: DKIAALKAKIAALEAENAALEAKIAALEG
# T38: 4H2729-AA
# T38 chain: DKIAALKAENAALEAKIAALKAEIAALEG
# T39: 4H566-AA
# T39 chain: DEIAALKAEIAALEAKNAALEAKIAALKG
# T40: 4H3844-AA
# T40 chain: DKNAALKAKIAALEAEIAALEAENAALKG
# T41: 4H2466-AA
# T41 chain: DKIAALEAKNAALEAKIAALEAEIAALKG
# T42: 4H2277-AA
# T42 chain: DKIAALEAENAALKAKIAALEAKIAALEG
# T43: 4H2575-AA
# T43 chain: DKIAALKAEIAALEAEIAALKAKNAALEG
# T44: 4H2754-AA
# T44 chain: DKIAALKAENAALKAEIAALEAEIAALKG
# T45: 4H234-AA
# T45 chain: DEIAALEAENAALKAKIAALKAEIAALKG
# T46: 4H2883-AA
# T46 chain: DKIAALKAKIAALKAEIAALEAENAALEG
# T47: 4H2354-AA
# T47 chain: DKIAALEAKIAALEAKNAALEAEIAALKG
# T48: 4H317-AA
# T48 chain: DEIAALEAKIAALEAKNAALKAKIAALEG
# T49: 4H3655-AA
# T49 chain: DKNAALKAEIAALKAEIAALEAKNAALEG
# Assays:
# 4H56-bA = biological target: T1, 4H56-bA; experiment: two-hybrid library CCNG1;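 further: natural log of median RNA to DNA barcode read ratio; higher means stronger binding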
# 4H3364-bA = biological target: T2, 4H3364-bA; experiment: two-hybrid library CCNG1;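 further: natural log of median RNA to DNA barcode read ratio; higher means stronger binding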
# 4H949-bA = biological target: T3, 4H949-bA; experiment: two-hybrid library CCNG1;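 further: natural log of median RNA to DNA barcode read ratio; higher means stronger binding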
# 4H796-bA = biological target: T4, 4H796-bA; experiment: two-hybrid library CCNG1;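 further: natural log of median RNA to DNA barcode read ratio; higher means stronger binding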
# 4H3297-bA = biological target: T5, 4H3297-bA; experiment: two-hybrid library CCNG1
# 4H349-bA = biological target: T6, 4H349-bA; experiment: two-hybrid library CCNG1
# 4H3041-bA = biological target: T7, 4H3041-bA; experiment: two-hybrid library CCNG1
# 4H932-bA = biological target: T8, 4H932-bA; experiment: two-hybrid library CCNG1
# 4H3381-bA = biological target: T9, 4H3381-bA; experiment: two-hybrid library CCNG1
# 4H730-bA = biological target: T10, 4H730-bA; experiment: two-hybrid library CCNG1
# 4H881-AA = biological target: T11, 4H881-AA; experiment: two-hybrid library CCmax; conditions: mean of both orientations
# 4H993-AA = biological target: T12, 4H993-AA; experiment: two-hybrid library CCmax; conditions: mean of both orientations
# 4H3112-AA = biological target: T13, 4H3112-AA; experiment: two-hybrid library CCmax; conditions: mean of both orientations
# 4H2642-AA = biological target: T14, 4H2642-AA; experiment: two-hybrid library CCmax; conditions: mean of both orientations
# 4H717-AA = biological target: T15, 4H717-AA; experiment: two-hybrid library CCmax; conditions: mean of both orientations
# 4H2944-AA = biological target: T16, 4H2944-AA; experiment: two-hybrid library CCmax; conditions: mean of both orientations
# 4H48-AA = biological target: T17, 4H48-AA; experiment: two-hybrid library CCmax; conditions: mean of both orientations
# 4H342-AA = biological target: T18, 4H342-AA; experiment: two-hybrid library CCmax; conditions: mean of both orientations
# 4H2949-AA = biological target: T19, 4H2949-AA; experiment: two-hybrid library CCmax; conditions: mean of both orientations
# 4H2617-AA = biological target: T20, 4H2617-AA; experiment: two-hybrid library CCmax; conditions: mean of both orientations
# 4H335-AA = biological target: T21, 4H335-AA; experiment: two-hybrid library CCmax; conditions: mean of both orientations
# 4H3343-AA = biological target: T22, 4H3343-AA; experiment: two-hybrid library CCmax; conditions: mean of both orientations
# 4H605-AA = biological target: T23, 4H605-AA; experiment: two-hybrid library CCmax; conditions: mean of both orientations
# 4H3627-AA = biological target: T24, 4H3627-AA; experiment: two-hybrid library CCmax; conditions: mean of both orientations
# 4H2190-AA = biological target: T25, 4H2190-AA; experiment: two-hybrid library CCmax
# 4H454-AA = biological target: T26, 4H454-AA; experiment: two-hybrid library CCmax; conditions: mean of both orientations
# 4H794-AA = biological target: T27, 4H794-AA; experiment: two-hybrid library CCmax; conditions: mean of both orientations
# 4H678-AA = biological target: T28, 4H678-AA; experiment: two-hybrid library CCmax; conditions: mean of both orientations
# 4H906-AA = biological target: T29, 4H906-AA; experiment: two-hybrid library CCmax; conditions: mean of both orientations
# 4H429-AA = biological target: T30, 4H429-AA; experiment: two-hybrid library CCmax; conditions: mean of both orientations
# 4H3427-AA = biological target: T31, 4H3427-AA; experiment: two-hybrid library CCmax; conditions: mean of both orientations
# 4H2393-AA = biological target: T32, 4H2393-AA; experiment: two-hybrid library CCmax; conditions: mean of both orientations
# 4H3606-AA = biological target: T33, 4H3606-AA; experiment: two-hybrid library CCmax; conditions: mean of both orientations
# 4H780-AA = biological target: T34, 4H780-AA; experiment: two-hybrid library CCmax; conditions: mean of both orientations
# 4H3921-AA = biological target: T35, 4H3921-AA; experiment: two-hybrid library CCmax; conditions: mean of both orientations
# 4H2505-AA = biological target: T36, 4H2505-AA; experiment: two-hybrid library CCmax; conditions: mean of both orientations
# 4H2837-AA = biological target: T37, 4H2837-AA; experiment: two-hybrid library CCmax; conditions: mean of both orientations
# 4H2729-AA = biological target: T38, 4H2729-AA; experiment: two-hybrid library CCmax; conditions: mean of both orientations
# 4H566-AA = biological target: T39, 4H566-AA; experiment: two-hybrid library CCmax; conditions: mean of both orientations
# 4H3844-AA = biological target: T40, 4H3844-AA; experiment: two-hybrid library CCmax; conditions: mean of both orientations
# 4H2466-AA = biological target: T41, 4H2466-AA; experiment: two-hybrid library CCmax; conditions: mean of both orientations
# 4H2277-AA = biological target: T42, 4H2277-AA; experiment: two-hybrid library CCmax; conditions: mean of both orientations
# 4H2575-AA = biological target: T43, 4H2575-AA; experiment: two-hybrid library CCmax; conditions: mean of both orientations
# 4H2754-AA = biological target: T44, 4H2754-AA; experiment: two-hybrid library CCmax; conditions: mean of both orientations
# 4H234-AA = biological target: T45, 4H234-AA; experiment: two-hybrid library CCmax; conditions: mean of both orientations
# 4H2883-AA = biological target: T46, 4H2883-AA; experiment: two-hybrid library CCmax; conditions: mean of both orientations
# 4H2354-AA = biological target: T47, 4H2354-AA; experiment: two-hybrid library CCmax; conditions: mean of both orientations
# 4H317-AA = biological target: T48, 4H317-AA; experiment: two-hybrid library CCmax; conditions: mean of both orientations
# 4H3655-AA = biological target: T49, 4H3655-AA; experiment: two-hybrid library CCmax; conditions: mean of both orientations
binder,measurement,setting,value
DKIAQLKQKNAELKQKIAELEWEIAQLEQ [4H3041-bA],interaction score,4H56-bA,0.805
same,interaction score,4H3364-bA,-1
same,interaction score,4H949-bA,-1.15
same,interaction score,4H796-bA,-1.16
same,interaction score,4H3297-bA,-0.21
same,interaction score,4H349-bA,-1.44
same,interaction score,4H3041-bA,0.985
same,interaction score,4H932-bA,-0.693
same,interaction score,4H3381-bA,-1.17
same,interaction score,4H730-bA,-1.65
DKIAALEAENAALEAEIAALKAKIAALKG [4H2190-AA],interaction score,4H881-AA,0.176
same,interaction score,4H993-AA,2.17
same,interaction score,4H3112-AA,-0.916
same,interaction score,4H2642-AA,-0.738
same,interaction score,4H717-AA,1.16
same,interaction score,4H2944-AA,-1.51
same,interaction score,4H48-AA,-0.0631
same,interaction score,4H342-AA,0.437
same,interaction score,4H2949-AA,2.07
same,interaction score,4H2617-AA,0.788
same,interaction score,4H335-AA,0.22
same,interaction score,4H3343-AA,-1.32
same,interaction score,4H605-AA,-1.55
same,interaction score,4H3627-AA,-0.558
same,interaction score,4H2190-AA,2.19
same,interaction score,4H454-AA,1.72
same,interaction score,4H794-AA,-0.883
same,interaction score,4H678-AA,-0.81
same,interaction score,4H906-AA,1.04
same,interaction score,4H429-AA,1.95
same,interaction score,4H3427-AA,-1.15
same,interaction score,4H2393-AA,0.996
same,interaction score,4H3606-AA,-0.529
same,interaction score,4H780-AA,-1.55
same,interaction score,4H3921-AA,-1.21
same,interaction score,4H2505-AA,2.21
same,interaction score,4H2837-AA,-1.55
same,interaction score,4H2729-AA,2.26
same,interaction score,4H566-AA,0.26
same,interaction score,4H3844-AA,0.147
same,interaction score,4H2466-AA,0.489
same,interaction score,4H2277-AA,1.06
same,interaction score,4H2575-AA,-0.718
same,interaction score,4H2754-AA,2.3
same,interaction score,4H234-AA,1.66
same,interaction score,4H2883-AA,0.596
same,interaction score,4H2354-AA,-0.303
same,interaction score,4H317-AA,2.09
same,interaction score,4H3655-AA,1.73
